Here are results for 1 molecule from US20250042976A1 (ROCHE DIAGNOSTICS OPERATIONS, published 2025).

What is called Kd is the free concentration of one partner at which half of the binding sites on the other are occupied at equilibrium, for simple one-to-one binding. As usually defined, the koff is the first-order rate constant of dissociation. Lower therefore signals a long-lived complex. The kon is a measure of how fast the partners come together. Lower therefore signals slow association.

Some targets named below: RBD-E484K (SARS-CoV-2, UniProt P0DTC2); RBD-E406W (SARS-CoV-2, UniProt P0DTC2); RBD Omikron (SARS-CoV-2, Omicron variant); RBD-L452Q F490S (SARS-CoV-2, UniProt P0DTC2).

B1: Antibody 1F12 (antibody, V domains shown)
VH: QSLEESGGDLVKPGASLTLTCTASGFSFSNNYVMCWVRQAPGKGLEWIGCINTGSGSTYYATWAKGRFTISKISSTTVTLQMTSLTAADTATYFCARSTTYYNYIGGNWIYVMDGFNLWGPGTLVPVSS
VL: AQVLTQTPSSVSEPVGGTVTINCQASENIYSSLAWYQQKPGQPPKLLIYDASDLASGVPSRFSGSGSGTEYTLTISGVECDDAATYYCQQGYTVDNIDNTFGGGTEVVVK
Regarding B1, the Kd with RBD-E484K is 0.31 nM; in the experiment with RBD-E406W, 0.75 nM; with RBD Omikron, 0.28 nM; with RBD-L452Q F490S, 0.33 nM. Besides, the off-rate (koff) is 0.00081 s⁻¹ in the experiment with RBD-E484K, 0.0016 s⁻¹ in the experiment with RBD-E406W, 0.0012 s⁻¹ with RBD Omikron and 0.0019 s⁻¹ in the experiment with RBD-L452Q F490S. Also, the kon worked out at 2.6e+06 M⁻¹ s⁻¹ with RBD-E484K, 2.1e+06 M⁻¹ s⁻¹ in the experiment with RBD-E406W, 2e+06 M⁻¹ s⁻¹ in the experiment with RBD Omikron and 5.8e+06 M⁻¹ s⁻¹ in the experiment with RBD-L452Q F490S.
